These results are taken from PMC4370339 (Journal of molecular biology, 2014).

T1: SecBA129C (A, otherwise wild-type) (Escherichia coli, UniProt P0AG86 1-155, A129C | C102L)
T1 sequence (looked up): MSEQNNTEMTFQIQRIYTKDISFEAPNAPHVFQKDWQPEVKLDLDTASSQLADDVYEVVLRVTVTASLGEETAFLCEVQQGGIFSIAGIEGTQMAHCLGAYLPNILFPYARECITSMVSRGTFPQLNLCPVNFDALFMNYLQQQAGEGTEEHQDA

T2: SecBQ12C E77K (B) (Escherichia coli, UniProt P0AG86 1-155, Q12C | E77K | C102L)
T2 sequence (looked up): T1 sequence (looked up) with Q12C, E77K, C129A

T3: SecBE77K parent carrying A129C (b) (Escherichia coli, UniProt P0AG86 1-155, E77K | A129C | C102L)
T3 sequence (looked up): T1 sequence (looked up) with E77K

B1: SecB wild-type (natural protein, Escherichia coli, UniProt P0AG86 1-155, looked up)
chain: T1 sequence (looked up) with L102C, C129A
B2: SecB wild-type parent carrying Q12C (A) (natural protein, Escherichia coli, UniProt P0AG86 1-155, looked up)
chain: T1 sequence (looked up) with Q12C, C129A
B3: SecB142 parent carrying A129C (c) (domain or fragment, Escherichia coli, UniProt P0AG86 1-142, looked up)
chain: MSEQNNTEMTFQIQRIYTKDISFEAPNAPHVFQKDWQPEVKLDLDTASSQLADDVYEVVLRVTVTASLGEETAFLCEVQQGGIFSIAGIEGTQMAHCLGAYLPNILFPYARECITSMVSRGTFPQLNLCPVNFDALFMNYLQ
B4: SecB142,E77K parent carrying A129C (d) (domain or fragment, Escherichia coli, UniProt P0AG86 1-142, looked up)
chain: B3 chain with E77K
B5: SecBL75Q (natural protein, Escherichia coli)
chain: MSEQNNTEMTFQIQRIYTKDISFEAPNAPHVFQKDWQPEVKLDLDTASSQLADDVYEVVLRVTVTASLGEETAFQCEVQQGGIFSIAGIEGTQMAHCLGAYCPNILFPYARECITSMVSRGTFPQLNLAPVNFDALFMNYLQQQAGEGTEEHQ
B6: SecB142 parent carrying Q12C (C) (domain or fragment, Escherichia coli, UniProt P0AG86 1-142, looked up)
chain: B3 chain with Q12C, C129A
B7: SecB142,E77K parent carrying Q12C (D) (domain or fragment, Escherichia coli, UniProt P0AG86 1-142, looked up)
chain: B3 chain with Q12C, E77K, C129A

One data set addresses SecB (Escherichia coli) (UniProt P0AG86). The data set can be described thus: ITC. The following applies: cited from earlier work.
The data set “AUC” deals with the molecule itself. Briefly: AUC.
In data set [1] the target is T4, SecA (Escherichia coli, UniProt P10408 1-901). Briefly: SEC.
The target of data set [2] is T1, SecBA129C (A, otherwise wild-type). Briefly: cross-linking.
The target of the next data set is T2, SecBQ12C E77K (B). The data set can be described thus: cross-linking.
In data set [3] the target is B2. Briefly: cross-linking.
For data set [4], the target named is T4, SecA. The data set can be described thus: SEC-MALS.
Data set [5] concerns the target T3, SecBE77K parent carrying A129C (b). The data set can be described thus: cross-linking.
Data set [6] addresses B4. The data set can be described thus: cross-linking.
For data set [7], the target named is B3. The data set can be described thus: cross-linking.

Numbering of substitutions follows the chain as printed. Numbers in names are those of the source.

As a reminder, the Kd is the equilibrium constant for the complex coming apart.

T4 sequence (P10408 whole entry): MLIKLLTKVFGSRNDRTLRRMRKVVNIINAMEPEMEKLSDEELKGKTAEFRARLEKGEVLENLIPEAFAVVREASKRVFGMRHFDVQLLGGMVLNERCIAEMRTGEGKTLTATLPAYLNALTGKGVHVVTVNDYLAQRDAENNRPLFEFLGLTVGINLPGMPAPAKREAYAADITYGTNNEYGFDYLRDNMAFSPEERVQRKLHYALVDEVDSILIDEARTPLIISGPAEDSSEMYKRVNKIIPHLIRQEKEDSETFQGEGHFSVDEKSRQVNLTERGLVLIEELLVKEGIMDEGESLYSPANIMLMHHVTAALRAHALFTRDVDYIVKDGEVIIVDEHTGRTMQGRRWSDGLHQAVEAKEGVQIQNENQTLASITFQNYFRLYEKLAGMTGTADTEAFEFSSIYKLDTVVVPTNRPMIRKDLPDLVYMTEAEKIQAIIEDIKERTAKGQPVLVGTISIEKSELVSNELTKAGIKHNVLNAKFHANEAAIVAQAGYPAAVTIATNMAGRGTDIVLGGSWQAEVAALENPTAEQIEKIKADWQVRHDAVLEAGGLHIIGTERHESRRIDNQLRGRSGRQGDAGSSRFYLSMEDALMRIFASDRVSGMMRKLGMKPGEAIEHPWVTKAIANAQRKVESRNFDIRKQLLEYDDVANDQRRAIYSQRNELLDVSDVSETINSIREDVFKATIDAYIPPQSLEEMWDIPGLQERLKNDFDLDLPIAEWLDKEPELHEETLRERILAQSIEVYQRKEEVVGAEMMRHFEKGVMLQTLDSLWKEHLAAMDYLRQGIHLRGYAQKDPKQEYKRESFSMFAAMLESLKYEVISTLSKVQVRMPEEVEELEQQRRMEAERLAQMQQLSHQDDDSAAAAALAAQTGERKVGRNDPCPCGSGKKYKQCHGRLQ

As for SecA 2-11 (from UniProt P10408), the Kd with SecB (Escherichia coli) is 30 µM.
As for B1, the binding result in the data set “AUC” is “binds”. Further, the “relative affinity (ratio of Kds) against radiolabeled SecB” value in the data set with SecA [1] is 0.82 unitless.
On to B2, for which the binding result in data set [2] is “binds”.
On to B3, for which, in the data set with SecBQ12C E77K (B), the binding result was “binds”.
Turning to B4, the binding result in data set [3] is reported as “binds”.
With B5, the “stoichiometry N” value with SecA [4] was 1 SecA protomers per SecB tetramer.
Regarding B6, the binding result in data set [2], in [5] and in data set [6] was “binds” each time.
Consider B7, for which the binding result in data set [2], in data set [7] and in [5] was “binds” throughout.
